The record followed here is paper PMC2690451 (The EMBO Journal, 2009).

Data set [1] addresses T1, MBP-RacA (B. subtilis, UniProt P45870 1-184).
T1 sequence: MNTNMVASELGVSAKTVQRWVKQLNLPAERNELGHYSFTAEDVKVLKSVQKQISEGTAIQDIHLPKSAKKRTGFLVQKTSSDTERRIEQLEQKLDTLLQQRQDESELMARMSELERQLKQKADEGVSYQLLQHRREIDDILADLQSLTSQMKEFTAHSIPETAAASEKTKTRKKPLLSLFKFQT
In words: density gradient flotation with liposomes.

Data set [2] concerns the molecule itself. The data set is described as follows: SEC. (In general: Size exclusion chromatography separates by hydrodynamic size, large species first.)

B1: DivIVA (natural protein)
chain: MPLTPNDIHNKTFTKSFRGYDEDEVNEFLAQVRKDYEIVLRKKTELEAKVNELDERIGHFANIEETLNKSILVAQEAAEDVKRNSQKEAKLIVREAEKNADRIINESLSKSRKIAMEIEELKKQSKVFRTRFQMLIEAQLDLLKNDDWDHLLEYEVDAVFEEKE
As to B1, in data set [1], the binding result is “binds”.

B2: DivIVA-MBP (natural protein)
chain: MPLTPNDIHNKTFTKSFRGYDEDEVNEFLAQVRKDYEIVLRKKTELEAKVNELDERIGHFANIEETLNKSILVAQEAAEDVKRNSQKEAKLIVREAEKNADRIINESLSKSRKIAMEIEELKKQSKVFRTRFQMLIEAQLDLLKNDDWDHLLEYEVDAVFEEKE
Turning to B2, the binding result in data set [2] is listed as “binds”.

B3: ΔN-DivIVA-MBP (domain or fragment)
chain: RKKTELEAKVNELDERIGHFANIEETLNKSILVAQEAAEDVKRNSQKEAKLIVREAEKNADRIINESLSKSRKIAMEIEELKKQSKVFRTRFQMLIEAQLDLLKNDDWDHLLEYEVDAVFEEKE
For B3, the binding result in data set [2] is “binds”.

B4: ΔC-DivIVA-MBP (domain or fragment)
chain: MPLTPNDIHNKTFTKSFRGYDEDEVNEFLAQVRKDYEIVLRKKTELEAKVNELDERIGHFANIEETLNKSILVAQEAAEDVKRNSQKEAKLIVREAEKNADRIINESLSKSRKIAMEIEELKKQSKVFRTRFQMLIEAQLDLLK
For the molecule B4, the binding result in data set [2] is on record as “binds”.
